Reference: the supplement of paper PMC10065799, “High-throughput profiling of sequence recognition by tyrosine kinases and SH2 domains using bacterial peptide display” (eLife, 2023)

Tests used:
SHP2-C SH2 = assay: SH2 binding enrichment of the phosphorylated peptide, bacterial display (enrichment ratio); higher = better substrate or ligand; peptides without Tyr show the background
c-Src SH2 = assay: as above
Grb2 SH2 = Grb2 SH2 (UniProt P62993); assay: as above
Fes = Fes (UniProt P07332); assay: phosphorylation enrichment, bacterial display (enrichment ratio); higher = better substrate or ligand; peptides without Tyr show the background
Sequence of Fes (P07332 whole entry, looked up): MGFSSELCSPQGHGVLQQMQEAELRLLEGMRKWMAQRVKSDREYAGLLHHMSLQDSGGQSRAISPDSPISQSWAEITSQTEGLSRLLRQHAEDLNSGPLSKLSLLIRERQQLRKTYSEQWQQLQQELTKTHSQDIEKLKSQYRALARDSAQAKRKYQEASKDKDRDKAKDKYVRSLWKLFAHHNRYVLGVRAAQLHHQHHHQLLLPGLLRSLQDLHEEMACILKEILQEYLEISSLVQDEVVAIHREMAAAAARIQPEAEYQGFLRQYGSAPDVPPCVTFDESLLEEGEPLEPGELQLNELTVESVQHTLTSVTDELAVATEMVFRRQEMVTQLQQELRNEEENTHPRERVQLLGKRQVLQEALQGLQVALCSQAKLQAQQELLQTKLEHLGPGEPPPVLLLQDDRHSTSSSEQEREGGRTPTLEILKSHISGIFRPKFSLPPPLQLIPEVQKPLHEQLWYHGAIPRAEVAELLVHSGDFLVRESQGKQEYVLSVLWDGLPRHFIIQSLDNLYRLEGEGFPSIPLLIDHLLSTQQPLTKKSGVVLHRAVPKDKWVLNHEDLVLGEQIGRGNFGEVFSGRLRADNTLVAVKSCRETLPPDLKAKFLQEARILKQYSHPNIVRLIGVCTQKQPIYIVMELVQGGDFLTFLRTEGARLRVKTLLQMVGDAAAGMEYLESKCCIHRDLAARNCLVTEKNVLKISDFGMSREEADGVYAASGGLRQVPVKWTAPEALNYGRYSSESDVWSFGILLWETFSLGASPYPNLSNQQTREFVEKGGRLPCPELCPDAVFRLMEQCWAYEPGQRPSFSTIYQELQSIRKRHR

EPHB1 = EPHB1 (UniProt P54762); assay: as above
EPHB2 = EPHB2 (UniProt P29323); assay: as above
Sequence of EPHB2 (P29323 whole entry, looked up): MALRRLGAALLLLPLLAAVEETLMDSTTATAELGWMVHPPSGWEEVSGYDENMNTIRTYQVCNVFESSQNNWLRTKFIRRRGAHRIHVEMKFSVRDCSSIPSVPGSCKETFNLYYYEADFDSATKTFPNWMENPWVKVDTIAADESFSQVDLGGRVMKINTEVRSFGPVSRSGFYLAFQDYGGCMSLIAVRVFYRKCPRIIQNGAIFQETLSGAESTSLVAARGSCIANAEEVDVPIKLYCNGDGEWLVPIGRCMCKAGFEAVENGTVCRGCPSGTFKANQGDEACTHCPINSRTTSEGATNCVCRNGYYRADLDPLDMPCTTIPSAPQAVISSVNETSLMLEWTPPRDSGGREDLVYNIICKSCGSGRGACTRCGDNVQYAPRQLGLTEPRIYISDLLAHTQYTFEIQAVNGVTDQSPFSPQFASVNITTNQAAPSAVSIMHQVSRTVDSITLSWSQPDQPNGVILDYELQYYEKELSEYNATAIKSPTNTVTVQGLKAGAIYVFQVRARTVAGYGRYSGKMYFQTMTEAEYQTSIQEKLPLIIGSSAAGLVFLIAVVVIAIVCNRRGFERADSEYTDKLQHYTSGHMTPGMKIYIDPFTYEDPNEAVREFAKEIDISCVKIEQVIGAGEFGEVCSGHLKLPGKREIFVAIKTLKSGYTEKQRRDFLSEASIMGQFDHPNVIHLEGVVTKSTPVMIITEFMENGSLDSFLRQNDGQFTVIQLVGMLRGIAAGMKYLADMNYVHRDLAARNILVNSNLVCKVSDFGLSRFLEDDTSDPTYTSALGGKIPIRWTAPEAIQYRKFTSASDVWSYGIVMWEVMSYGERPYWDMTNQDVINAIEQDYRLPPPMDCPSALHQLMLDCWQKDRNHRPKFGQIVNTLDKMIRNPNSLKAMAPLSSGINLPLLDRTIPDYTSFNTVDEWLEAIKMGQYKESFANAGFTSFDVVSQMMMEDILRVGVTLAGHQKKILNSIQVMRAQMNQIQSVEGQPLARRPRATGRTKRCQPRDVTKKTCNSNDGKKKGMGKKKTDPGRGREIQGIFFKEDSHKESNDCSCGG

FGFR3 = FGFR3 (UniProt P22607); assay: as above
Hck = Hck (UniProt P08631); assay: as above
Sequence of Hck (P08631 whole entry, looked up): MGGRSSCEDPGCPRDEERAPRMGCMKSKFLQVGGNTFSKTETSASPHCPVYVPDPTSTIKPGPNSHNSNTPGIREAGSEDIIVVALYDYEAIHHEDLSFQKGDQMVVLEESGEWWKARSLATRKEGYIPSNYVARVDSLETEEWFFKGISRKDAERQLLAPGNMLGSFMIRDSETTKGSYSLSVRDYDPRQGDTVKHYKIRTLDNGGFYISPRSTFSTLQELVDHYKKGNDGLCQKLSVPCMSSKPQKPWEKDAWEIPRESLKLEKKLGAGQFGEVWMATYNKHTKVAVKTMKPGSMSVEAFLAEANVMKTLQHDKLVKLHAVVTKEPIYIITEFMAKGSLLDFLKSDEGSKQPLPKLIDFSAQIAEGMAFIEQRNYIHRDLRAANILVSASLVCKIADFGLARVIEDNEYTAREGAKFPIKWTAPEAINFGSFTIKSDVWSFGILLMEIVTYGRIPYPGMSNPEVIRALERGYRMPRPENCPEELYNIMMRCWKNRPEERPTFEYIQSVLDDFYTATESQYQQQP

Fyn = Fyn (UniProt P06241); assay: as above
Sequence of Fyn (P06241 whole entry, looked up): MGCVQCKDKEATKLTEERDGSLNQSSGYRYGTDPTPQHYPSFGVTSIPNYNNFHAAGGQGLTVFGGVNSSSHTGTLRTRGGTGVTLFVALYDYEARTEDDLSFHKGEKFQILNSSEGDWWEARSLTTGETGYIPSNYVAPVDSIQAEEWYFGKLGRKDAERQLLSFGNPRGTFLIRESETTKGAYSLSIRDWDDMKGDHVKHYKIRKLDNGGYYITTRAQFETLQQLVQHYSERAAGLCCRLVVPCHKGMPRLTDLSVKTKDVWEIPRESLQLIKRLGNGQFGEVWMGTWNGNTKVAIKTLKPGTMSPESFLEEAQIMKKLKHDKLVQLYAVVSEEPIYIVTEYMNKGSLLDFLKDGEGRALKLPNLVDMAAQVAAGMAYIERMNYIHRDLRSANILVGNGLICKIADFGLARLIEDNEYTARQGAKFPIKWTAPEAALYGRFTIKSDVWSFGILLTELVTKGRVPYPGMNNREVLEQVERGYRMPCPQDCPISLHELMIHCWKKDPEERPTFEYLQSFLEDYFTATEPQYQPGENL

AncSZ = assay: as above
c-Src = assay: as above
c-Abl (mouse) = assay: as above
MERTK = MERTK (UniProt Q12866); assay: as above
Sequence of MERTK (Q12866 whole entry, looked up): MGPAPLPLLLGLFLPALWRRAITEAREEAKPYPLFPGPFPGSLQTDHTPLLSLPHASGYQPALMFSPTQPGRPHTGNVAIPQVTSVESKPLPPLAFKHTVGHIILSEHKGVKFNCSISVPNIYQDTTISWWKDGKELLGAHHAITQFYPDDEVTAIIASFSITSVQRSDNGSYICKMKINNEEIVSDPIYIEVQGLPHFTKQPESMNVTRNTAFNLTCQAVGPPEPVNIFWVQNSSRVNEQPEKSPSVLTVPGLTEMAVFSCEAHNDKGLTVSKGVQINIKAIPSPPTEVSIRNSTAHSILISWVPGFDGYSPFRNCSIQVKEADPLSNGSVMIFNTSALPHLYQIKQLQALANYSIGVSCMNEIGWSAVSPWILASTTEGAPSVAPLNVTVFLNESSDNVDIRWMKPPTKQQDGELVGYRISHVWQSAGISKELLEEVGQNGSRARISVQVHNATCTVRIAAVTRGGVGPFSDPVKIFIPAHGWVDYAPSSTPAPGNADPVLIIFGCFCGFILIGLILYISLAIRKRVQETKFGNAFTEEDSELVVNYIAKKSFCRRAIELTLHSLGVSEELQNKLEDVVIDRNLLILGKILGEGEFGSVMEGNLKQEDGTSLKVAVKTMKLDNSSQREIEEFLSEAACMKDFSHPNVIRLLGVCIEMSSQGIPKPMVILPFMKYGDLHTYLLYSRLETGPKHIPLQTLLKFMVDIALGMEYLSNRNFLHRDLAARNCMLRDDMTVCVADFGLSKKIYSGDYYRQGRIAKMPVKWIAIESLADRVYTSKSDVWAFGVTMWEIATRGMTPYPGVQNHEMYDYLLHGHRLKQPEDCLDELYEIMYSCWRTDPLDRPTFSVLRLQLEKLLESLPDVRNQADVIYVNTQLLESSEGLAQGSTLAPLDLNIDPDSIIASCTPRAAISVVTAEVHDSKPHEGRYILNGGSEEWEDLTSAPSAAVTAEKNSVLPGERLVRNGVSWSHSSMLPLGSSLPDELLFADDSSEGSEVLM

FGFR1 = FGFR1 (UniProt P11362); assay: as above
Fer (mouse) = assay: as above
Jak2 = Jak2 (UniProt O60674); assay: as above
Sequence of Jak2 (O60674 whole entry, looked up, the tested form may be a part): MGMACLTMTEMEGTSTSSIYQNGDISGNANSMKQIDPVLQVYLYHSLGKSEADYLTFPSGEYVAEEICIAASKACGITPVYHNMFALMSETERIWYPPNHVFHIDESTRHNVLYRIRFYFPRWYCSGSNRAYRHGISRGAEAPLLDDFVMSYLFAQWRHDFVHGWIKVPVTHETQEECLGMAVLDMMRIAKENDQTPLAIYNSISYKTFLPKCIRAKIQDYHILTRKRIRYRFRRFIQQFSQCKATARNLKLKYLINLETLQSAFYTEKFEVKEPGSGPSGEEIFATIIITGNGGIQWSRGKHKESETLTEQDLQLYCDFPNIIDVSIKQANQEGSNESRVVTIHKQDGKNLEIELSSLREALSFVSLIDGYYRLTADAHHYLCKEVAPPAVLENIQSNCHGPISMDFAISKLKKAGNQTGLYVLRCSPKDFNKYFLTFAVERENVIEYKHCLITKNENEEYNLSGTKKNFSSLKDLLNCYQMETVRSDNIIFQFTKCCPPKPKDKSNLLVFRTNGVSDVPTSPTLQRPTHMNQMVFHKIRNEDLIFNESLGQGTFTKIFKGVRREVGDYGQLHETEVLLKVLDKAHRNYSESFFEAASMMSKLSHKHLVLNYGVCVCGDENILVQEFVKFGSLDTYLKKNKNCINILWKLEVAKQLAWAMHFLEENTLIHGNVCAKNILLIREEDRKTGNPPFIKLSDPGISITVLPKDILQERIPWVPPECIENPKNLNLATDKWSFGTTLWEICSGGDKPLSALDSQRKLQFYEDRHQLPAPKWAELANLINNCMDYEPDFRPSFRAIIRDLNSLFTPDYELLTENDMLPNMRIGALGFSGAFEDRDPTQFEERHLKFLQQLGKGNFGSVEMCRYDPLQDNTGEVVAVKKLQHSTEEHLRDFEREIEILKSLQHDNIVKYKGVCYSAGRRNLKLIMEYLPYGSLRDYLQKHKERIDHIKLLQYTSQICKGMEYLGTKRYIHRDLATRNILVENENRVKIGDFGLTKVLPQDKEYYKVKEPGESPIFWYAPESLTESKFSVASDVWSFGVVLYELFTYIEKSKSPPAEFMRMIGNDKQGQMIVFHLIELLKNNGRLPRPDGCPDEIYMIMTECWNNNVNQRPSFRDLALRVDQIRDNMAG
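Throughout, for SH2 binding enrichment of the phosphorylated peptide, bacterial display: peptide library displayed on the E. coli surface as eCPX fusions, selected cells deep-sequenced, score is each peptide's frequency after selection divided by its frequency in the input.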
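Throughout, for phosphorylation enrichment, bacterial display: 11-residue human phosphosite peptides and single-mutation variants displayed on the E. coli surface, counted by deep sequencing, each peptide's frequency after selection divided by its frequency in the unselected input library; frequency after pTyr selection over input frequency; kinase dosed for 20-30% of maximal phosphorylation in three min.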

Row | Sequence | SH2 binding enrichment (SHP2-C SH2) | SH2 binding enrichment (c-Src SH2) | SH2 binding enrichment (Grb2 SH2) | phosphorylation enrichment (Fes) | phosphorylation enrichment (EPHB1) | phosphorylation enrichment (EPHB2) | phosphorylation enrichment (FGFR3) | phosphorylation enrichment (Hck) | phosphorylation enrichment (Fyn) | phosphorylation enrichment (AncSZ) | phosphorylation enrichment (c-Src) | phosphorylation enrichment (c-Abl (mouse)) | phosphorylation enrichment (MERTK) | phosphorylation enrichment (FGFR1) | phosphorylation enrichment (Fer (mouse)) | phosphorylation enrichment (Jak2)
1 | QNVADYMRCLM [RPL5_Y207_Y210C] | 0.725 | 0.624 | 0.912 | 1.62 | 1.03 | 0.801 | 0.969 | 0.652 | 0.729 | 1.68 | 0.444 | 0.911 | 0.42 | 0.753 | 0.797 | 1.37
2 | QRKPSYNQLPS [BRCA2_Y71_A75P] | 0.648 | 0.423 | 0.858 | 0.767 | 0.449 | 0.522 | 0.598 | 0.691 | 0.599 | 0.886 | 0.682 | 1.08 | 0.567 | 0.557 | 0.536 | 0.72
3 | QSKGIYYVQLE [MGAT4B_Y262] | 1.71 | 1.35 | 0.724 | 1.42 | 1.12 | 0.872 | 3 | 2.22 | 2.5 | 1.21 | 3.33 | 1.1 | 8.64 | 3.51 | 0.763 | 1.47
4 | RAIDMYLMGCF [GABRB2_Y308_K303R] | 0.572 | 0.332 | 0.886 | 1.79 | 0.848 | 0.706 | 1.19 | 0.888 | 0.907 | 1.87 | 1.29 | 1.58 | 0.601 | 0.777 | 0.799 | 1.83
5 | RAIELYNDKEK [OTULIN_Y244] | 0.746 | 0.467 | 0.735 | 1.51 | 0.73 | 0.821 | 0.924 | 1.08 | 0.558 | 1.52 | 0.747 | 0.845 | 0.54 | 0.923 | 0.657 | 1.69
6 | RAILDYIASKY [GSTA3_Y74_N73D] | 0.872 | 0.746 | 1.06 | 0.761 | 0.456 | 0.646 | 0.661 | 0.471 | 0.564 | 0.867 | 0.376 | 0.616 | 0.473 | 0.512 | 0.665 | 0.718
7 | RASDFYSQQMA [GBP6_Y334_A331S_YF] | 0.575 | 0.649 | 0.739 | 0.682 | 0.708 | 0.683 | 0.605 | 0.539 | 0.423 | 0.755 | 0.675 | 0.738 | 0.957 | 0.444 | 0.37 | 0.688

Further lines, with some results ahead:

Row | SH2 binding enrichment (SHP2-C SH2) | SH2 binding enrichment (c-Src SH2) | SH2 binding enrichment (Grb2 SH2) | Sequence | phosphorylation enrichment (Fes) | phosphorylation enrichment (EPHB1) | phosphorylation enrichment (EPHB2) | phosphorylation enrichment (FGFR3) | phosphorylation enrichment (Hck) | phosphorylation enrichment (Fyn) | phosphorylation enrichment (AncSZ) | phosphorylation enrichment (c-Src) | phosphorylation enrichment (c-Abl (mouse)) | phosphorylation enrichment (MERTK) | phosphorylation enrichment (FGFR1) | phosphorylation enrichment (Fer (mouse)) | phosphorylation enrichment (Jak2)
8 | 0.59 | 1.31 | 0.958 | QQLDKYQELLD [LMNA_Y359_E358K] | 0.995 | 0.889 | 0.806 | 0.783 | 0.441 | 0.485 | 1.26 | 0.453 | 0.789 | 0.446 | 0.715 | 0.452 | 1.33
9 | 0.608 | 0.56 | 0.887 | QRAADYYSQQM [GBP6_Y333] | 1.53 | 0.933 | 1.14 | 1.75 | 0.611 | 1.42 | 1.29 | 0.524 | 0.591 | 0.813 | 2.32 | 0.579 | 0.728
10 | 0.775 | 0.599 | 0.924 | QRNEEYCLLDS [ITK_Y198_R193Q] | 2.35 | 1.11 | 0.995 | 1.37 | 0.707 | 0.735 | 1.7 | 0.963 | 1.67 | 0.861 | 1.74 | 0.862 | 1.85
11 | 0.761 | 0.623 | 0.836 | QSHKVYFQHLL [POR_Y604_V605F] | 1.52 | 0.671 | 0.503 | 0.915 | 0.598 | 0.473 | 1.14 | 0.663 | 0.991 | 0.725 | 0.622 | 0.698 | 1.22
12 | 1 | 0.665 | 0.979 | QSHKVYVQHLL [POR_Y604] | 0.971 | 0.444 | 0.572 | 0.977 | 0.858 | 0.908 | 0.919 | 0.618 | 0.806 | 0.594 | 0.867 | 0.742 | 0.798
13 | 0.54 | 0.524 | 0.881 | QSSALYEDHYL [ASS1_Y83_R86H] | 1.18 | 5.41 | 2.07 | 0.702 | 1.58 | 0.904 | 1.24 | 1.14 | 0.734 | 1.33 | 0.477 | 18.5 | 1.18
14 | 0.634 | 0.721 | 0.71 | QTEGEYSSLEH [IDH3B_Y171] | 1.82 | 0.91 | 1.01 | 0.874 | 1.04 | 0.886 | 1.79 | 1.26 | 1.94 | 0.556 | 0.995 | 0.836 | 1.64
15 | 0.789 | 1.33 | 0.885 | QWPGPYDRPGA [HNRNPH2_Y210_R206W] | 0.928 | 0.416 | 0.513 | 0.798 | 0.73 | 0.636 | 0.646 | 0.54 | 0.681 | 0.541 | 0.602 | 0.858 | 0.719
16 | 1.17 | 1.47 | 2.09 | RALRHYYKLNI [ETV6_Y401] | 0.606 | 1.29 | 0.415 | 1.03 | 0.95 | 0.685 | 1.07 | 0.201 | 0.371 | 0.763 | 1.46 | 0.402 | 0.504
17 | 0.536 | 0.572 | 0.663 | RARIRYAQEHD [NSD1_Y1987] | 0.885 | 0.727 | 1.19 | 0.625 | 0.85 | 0.757 | 1.12 | 0.636 | 0.706 | 0.627 | 0.689 | 0.737 | 0.691
